# B1: C. elegans scavenger decapping enzyme (DcpS) (Caenorhabditis elegans) (protein)
# chain: MKRIADEELVREERAEESTQKWLQDAKFQEILGADSSHKSLFVLLSHPDGSQGILLANKSPFSEEKSDIEKLLATAQLQEISRNDIFGSYNIEIDPKLNLLKSQLIYPINDRLIAKYRQEEKFVIRETPELYETVTRPYIEKYQLNLNWVYNCLEKRSEVDKIVFEDPDNENGFVLLQDIKWDGKTLENLYVLAICHRHGLKSVRDLTGDDLEMLYNMRDKSLEAINQKYGLKTDQIKCYFHYQPSFYHLHVHFINLKYDAPASTTMSAILLDDVINNLELNPEHYKKSTLTFTRKNGDKLMEMFREALKN
# Columns and labels:
# purified protein [1] = substrate: CC[n+]1cn([C@@H]2O[C@H](COP(=O)(O)OP(=O)(O)OP(=O)(O)OC[C@H]3O[C@@H](n4cnc5c(=O)[nH]c(N)nc54)[C@H](O)[C@@H]3O)[C@@H](O)[C@H]2O)c2nc(N)[nH]c(=O)c21; test: purified protein; settings: cleaved between β and γ phosphates; cap-binding pocket; pH 7.2; 20.0 °C
# purified protein [2] = substrate: C[n+]1cn([C@@H]2O[C@H](COP(=O)(O)OP(=O)(O)OP(=O)(O)OC[C@H]3O[C@@H](n4cnc5c(=O)[nH]c(N)nc54)[C@H](O)[C@@H]3O)[C@@H](O)[C@H]2O)c2nc(N)[nH]c(=O)c21; test: purified protein; settings: cleaved between β and γ phosphates; cap-binding pocket; pH 7.2; 20.0 °C
# purified protein [3] = substrate: CN(C)c1nc2c(c(=O)[nH]1)[n+](C)cn2[C@@H]1O[C@H](COP(=O)(O)OP(=O)(O)OP(=O)(O)OC[C@H]2O[C@@H](n3cnc4c(N)ncnc43)[C@H](O)[C@@H]2O)[C@@H](O)[C@H]1O; test: purified protein; settings: cleaved between β and γ phosphates; pH 7.2; 20.0 °C
# purified protein [4] = substrate: C[n+]1cn([C@@H]2O[C@H](COP(=O)(O)OP(=O)(O)OP(=O)(O)OC[C@H]3O[C@@H](n4cnc5c(=O)[nH]c(N)nc54)C[C@@H]3O)[C@@H](O)[C@H]2O)c2nc(N)[nH]c(=O)c21; test: purified protein; settings: cleaved between β and γ phosphates; pH 7.2; 20.0 °C
# purified protein [5] = substrate: C[n+]1cn([C@@H]2O[C@H](COP(=O)(O)OP(=O)(O)OP(=O)(O)OC[C@H]3O[C@@H](n4cnc5c(N)ncnc54)[C@H](O)[C@@H]3O)[C@@H](O)[C@H]2O)c2nc(N)[nH]c(=O)c21; test: purified protein; settings: cleaved between β and γ phosphates; pH 7.2; 20.0 °C
# purified protein [6] = substrate: C[n+]1cn([C@@H]2O[C@H](COP(=O)(O)OP(=O)(O)OP(=O)(O)OC[C@H]3O[C@@H](n4c[n+](C)c5c(=O)[nH]c(N)nc54)[C@H](O)[C@@H]3O)[C@@H](O)[C@H]2O)c2nc(N)[nH]c(=O)c21; test: purified protein; settings: cleaved between β and γ phosphates; pH 7.2; 20.0 °C
# purified protein [7] = substrate: Nc1nc2c(ncn2[C@@H]2O[C@H](COP(=O)(O)OP(=O)(O)OP(=O)(O)OC[C@H]3O[C@@H](n4c[n+](Cc5ccccc5)c5c(=O)[nH]c(N)nc54)[C@H](O)[C@@H]3O)[C@@H](O)[C@H]2O)c(=O)[nH]1; test: purified protein; settings: cleaved between β and γ phosphates; cap-binding pocket; pH 7.2; 20.0 °C
# purified protein [8] = substrate: CNc1ncnc2c1ncn2[C@@H]1O[C@H](COP(=O)(O)OP(=O)(O)OP(=O)(O)OC[C@H]2O[C@@H](n3c[n+](C)c4c(=O)[nH]c(N)nc43)[C@H](O)[C@@H]2O)[C@@H](O)[C@H]1O; test: purified protein; settings: cleaved between β and γ phosphates; pH 7.2; 20.0 °C
# purified protein [9] = substrate: CO[C@@H]1[C@H](O)[C@@H](COP(=O)(O)OP(=O)(O)OP(=O)(O)OC[C@H]2O[C@@H](n3c[n+](C)c4c(=O)[nH]c(N)nc43)[C@H](O)[C@@H]2O)O[C@H]1n1cnc2c(=O)[nH]c(N)nc21; test: purified protein; settings: cleaved between β and γ phosphates; pH 7.2; 20.0 °C
# [10] = substrate: CN(C)c1nc2c(c(=O)[nH]1)[n+](C)cn2[C@@H]1O[C@H](COP(=O)(O)OP(=O)(O)OP(=O)(O)OC[C@H]2O[C@@H](n3cnc4c(=O)[nH]c(N)nc43)[C@H](O)[C@@H]2O)[C@@H](O)[C@H]1O; test: fluorimetric and HPLC hydrolysis kinetics; type: biochemical, Caenorhabditis elegans; settings: cleaved between β and γ phosphates; cap-binding pocket; pH 7.2; 20.0 °C
protein,measurement,setting,value
B1,Km,purified protein [1],0.61 µM
same,Vmax,purified protein [1],3.12 µmol/min/mg
same,Km,purified protein [2],1.17 µM
same,Vmax,purified protein [2],1.53 µmol/min/mg
same,Km,purified protein [3],2.36 µM
same,Vmax,purified protein [3],2.06 µmol/min/mg
same,Km,purified protein [4],1.36 µM
same,Vmax,purified protein [4],2 µmol/min/mg
same,Km,purified protein [5],0.6 µM
same,Vmax,purified protein [5],1.09 µmol/min/mg
same,Km,purified protein [6],1.12 µM
same,Vmax,purified protein [6],0.91 µmol/min/mg
same,Km,purified protein [7],1.83 µM
same,Vmax,purified protein [7],3.06 µmol/min/mg
same,Km,purified protein [8],1.03 µM
same,Vmax,purified protein [8],1.33 µmol/min/mg
same,Km,purified protein [9],1.23 µM
same,Vmax,purified protein [9],1.66 µmol/min/mg
same,Km,[10],3.85 µM
same,Vmax,[10],4.65 µmol/min/mg

# Source: paper PMC2907653
